Source: patent US20230104578A1 (ADRENOMED, published 2023)
Read-outs that look alike come from different tables or passages of the source. Ends that are not written are not given here.

Assays:
[1] = target: T1, human recombinant adrenomedullin receptor (CRLR+RAMP3) (human); assay: cell-based or functional assay
[2] = target: T1, human recombinant adrenomedullin …; assay: cell-based or functional assay; remark: listed apart in the source

T1 sequence (Q16602 whole entry, chain 1 of 2): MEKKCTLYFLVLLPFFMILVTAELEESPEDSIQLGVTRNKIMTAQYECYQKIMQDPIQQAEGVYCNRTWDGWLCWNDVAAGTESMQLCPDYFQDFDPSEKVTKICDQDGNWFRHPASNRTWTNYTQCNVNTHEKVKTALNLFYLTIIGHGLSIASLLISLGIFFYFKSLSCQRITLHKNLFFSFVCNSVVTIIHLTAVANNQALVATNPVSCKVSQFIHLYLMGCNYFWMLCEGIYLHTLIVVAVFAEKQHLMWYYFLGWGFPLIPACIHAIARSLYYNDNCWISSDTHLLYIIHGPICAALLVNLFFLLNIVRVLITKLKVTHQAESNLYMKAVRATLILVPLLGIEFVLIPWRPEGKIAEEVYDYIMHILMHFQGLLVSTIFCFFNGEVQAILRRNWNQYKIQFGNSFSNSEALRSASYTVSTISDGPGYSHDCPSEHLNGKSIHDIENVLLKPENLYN
T1 sequence (O60896 whole entry, chain 2 of 2, further chain): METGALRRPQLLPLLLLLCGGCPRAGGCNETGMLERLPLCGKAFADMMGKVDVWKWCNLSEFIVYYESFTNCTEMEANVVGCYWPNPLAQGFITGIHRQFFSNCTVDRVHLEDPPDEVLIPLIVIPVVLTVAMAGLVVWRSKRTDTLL

EC50 (read off the curve); cAMP (HTRF), % activation [1] [nM] | EC50 (read off the curve); cAMP (HTRF), % activation [2] [nM] | Binder
~0.08 | – | YRQSMNQGSRSNGCRFGTCTFQKLAHQIYQLTDKDKDGMAPRNKISPQGY-NH2 (ends and bridges not checked) [Murine ADM 1-50]
– | ~1 | mature human Adrenomedullin (amino acids 1-52) (ends and bridges not checked) peptide: YRQSMNNFQGLRSFGCRFGTCTVQKLAHQIYQFTDKDKDNVAPRSKISPQGY-NH2
